Where a chain is given by its changes, count along the chain named.
B1: MH5.35 (antibody, IgG1, V domains shown)
VH: QVQLVQSGAEVKKPGASVKVSCKASGYTFTNYYMNWVRQAPGQGLEWMGRIYPASGNTYYAQKFQGRVTMTRDTSTSTVYMELSSLRSEDTAVYYCARGVWYFDTWGQGTLVTVSS
VL: DIQMTQSPSSLSASVGDRVTITCRASQGIRTNLAWFQQKPGKAPKSLIYAASSLQSGVPSRFSGSGSGTDFTLTISSLQPEDFATYYCQQYANYPRTFGGGTKVEIK
notes: IgG1; also called C-KIT-MH5.35
B2: MH5.34 (antibody, IgG1, V domains shown)
VH: B1 VH with T105S
VL: B1 VL
notes: IgG1; also called C-KIT-MH5.34
B3: MH5.23 (antibody, IgG1, V domains shown)
VH: B1 VH with N31D, Y32F, T105S
VL: B1 VL
notes: IgG1; also called C-KIT-MH5.23
B4: MH5.1 (antibody, IgG1, V domains shown)
VH: B1 VH with A54G, S55T, F103Y, T105Y
VL: B1 VL
notes: IgG1; also called C-KIT-MH5.1
B5: MH5.24 (antibody, IgG1, V domains shown)
VH: B1 VH with N31D, Y32F
VL: B1 VL
notes: IgG1; also called C-KIT-MH5.24
B6: MH5.2 (antibody, IgG1, V domains shown)
VH: B1 VH with N31D, Y32F, A54G, S55T, F103Y, T105Y
VL: B1 VL
notes: IgG1; also called C-KIT-MH5.2
B7: chimeric anti-C-KIT antibody m37M, human IgG1 (antibody, V domains shown)
VH: QVQLKQSGAELVRPGASVKLSCKASGYTFTDYYINWVKQRPGQGLEWIARIYPGSGNTYYNEKFKGKATLTAEKSSSTAYMQLSSLTSEDSAVYFCARGVYYFDYWGQGTTLTVSS
VL: DIVMTQSQKFMSTSVGDRVSVTCKASQNVRTNVAWYQQKPGQSPKALIYSASYRYSGVPDRFTGSGSGTDFTLTISNVQSEDLADYFCQQYNSYPRTFGGGTKLEIKR
B8: MH5.4 (antibody, IgG1, V domains shown)
VH: B1 VH with N31D, Y32H, A54G, S55T, T105S
VL: B1 VL
notes: IgG1
B9: MH5.6 (antibody, IgG1, V domains shown)
VH: B1 VH with N31D, Y32H, A54G, S55T, T105E
VL: B1 VL
notes: IgG1
B10: MH5.15 (antibody, IgG1, V domains shown)
VH: B1 VH with N31D, Y32F, A54G, S55T, T105S
VL: B1 VL
notes: IgG1
B11: MH5.10 (antibody, IgG1, V domains shown)
VH: B1 VH with N31D, Y32H, A54G, S55A, T105E
VL: B1 VL
notes: IgG1
B12: MH5-DI, IgG1-3M format (antibody, V domains shown)
VH: B1 VH with N31D, A54G, W101Y, F103Y, T105Y
VL: B1 VL
B13: TTP2 (antibody, IgG1, V domains shown)
VH: B1 VH with N31D, A54G, W101Y, F103Y, T105Y
VL: B1 VL with A92N, N93S, R96H
notes: IgG1
B14: TTP6 (antibody, IgG1, V domains shown)
VH: B1 VH with N31D, A54G, W101Y, F103Y, T105Y
VL: B1 VL with I29V, A92N, N93A, R96H
notes: IgG1
B15: MH8 (antibody, IgG1, V domains shown)
VH: B1 VH with N31D, A54G, W101Y, F103Y, T105Y
VL: B1 VL with A50S, A92S, N93S
notes: IgG1
B16: MH13 (antibody, IgG1, V domains shown)
VH: B1 VH with N31D, A54G, W101Y, F103Y, T105Y
VL: B1 VL with I29V, A92N, N93A
notes: IgG1
B17: MH12 (antibody, IgG1, V domains shown)
VH: B1 VH with N31D, A54G, W101Y, F103Y, T105Y
VL: B1 VL with I29V, A92N, N93S
notes: IgG1
B18: TTP3 (antibody, IgG1, V domains shown)
VH: B1 VH with N31D, A54G, W101Y, F103L, T105Y
VL: B1 VL with I29V, A50S, A92N, N93A, R96K
notes: IgG1
B19: MH10 (antibody, IgG1, V domains shown)
VH: B1 VH with N31D, A54G, W101Y, F103Y, T105Y
VL: B1 VL with A50S, A92T, N93S
notes: IgG1
B20: MH6 (antibody, IgG1, V domains shown)
VH: B1 VH with N31D, A54G, W101Y, F103Y, T105Y
VL: B1 VL with A50S, A92N, N93S, R96K
notes: IgG1
B21: TTP4 (antibody, IgG1, V domains shown)
VH: B1 VH with N31D, A54G, W101Y, F103Y, T105Y
VL: B1 VL with I29V, A50S, A92N, N93A, R96H
notes: IgG1
B22: MH5.36 (antibody, IgG1, V domains shown)
VH: B1 VH with T105E
VL: B1 VL
notes: IgG1
B23: MH5.32 (antibody, IgG1, V domains shown)
VH: B1 VH with A54G, S55A, T105E
VL: B1 VL
notes: IgG1
B24: D-A10 (antibody, IgG1, V domains shown)
VH: B1 VH with N31D, A54G, W101Y
VL: B1 VL with I29V, L54R, A92N, N93S
notes: IgG1; also called C-KIT-D-A10
B25: F-C5 (antibody, IgG1, V domains shown)
VH: B1 VH with N31D, A54G, W101Y, T105E
VL: B1 VL with I29V, L54R, A92N, N93S
notes: IgG1; also called C-KIT-F-C5; F-05
B26: C-B12 (antibody, IgG1, V domains shown)
VH: B1 VH with N31D, A54G, W101Y, Y102E, T105Y
VL: B1 VL with I29V, T31N, S53Y, L54R, A92N, N93S
notes: IgG1; also called C-KIT-C-B12
B27: E-E10 (antibody, IgG1, V domains shown)
VH: B1 VH with N31D, A54G, T105Y
VL: B1 VL with I29V, L33V, A50S, A92N, N93S
notes: IgG1; also called C-KIT-E-E10
B28: MH11 (antibody, IgG1, V domains shown)
VH: B1 VH with N31D, A54G, W101Y, F103Y, T105Y
VL: B1 VL with A92N, N93A
notes: IgG1; also called C-KIT-MH11
B29: C-A7 (antibody, IgG1, V domains shown)
VH: B1 VH with N31D, M48I, A54G, W101Y, T105S
VL: B1 VL with I29V, T31N, L33V, A50Y, A92N, N93S
notes: IgG1; also called C-KIT-C-A7
B30: F-F2 (antibody, IgG1, V domains shown)
VH: B1 VH with N31D, A54G, W101Y, F103Q, T105Y
VL: B1 VL with I29V, L33V, L54R, A92N, N93S
notes: IgG1; also called C-KIT-F-F2

Each binder was assayed against T1, human C-KIT, full length, on cells (human, UniProt P10721 26-976) (assay: flow cytometry, C-KIT-transfected CHO-K1 cells, IgG1 format).
T1 construct: full-length cDNA stably transfected in CHO-K1; also used here for endogenous C-KIT of TF-1 cells; also called human C-KIT+ CHO-K1 cells; C-KIT on TF-1 cells
In the case of B1, the “EC50 (read off the curve)” value is reported as ~0.1 µg/mL.
For B2, the “EC50 (read off the curve)” value was ~0.2 µg/mL.
In the case of B3, the “EC50 (read off the curve)” value is reported as ~0.2 µg/mL.
With B4 the “EC50 (read off the curve)” value was ~0.2 µg/mL.
In the case of B5, the “EC50 (read off the curve)” value is reported as ~0.2 µg/mL.
B6 was tested, and the “EC50 (read off the curve)” value was ~0.2 µg/mL.
With B7 the “EC50 (read off the curve)” value was ~0.2 µg/mL.

The binders below were run against T2, cynomolgus monkey C-KIT, full length, on CHO-K1 cells (cynomolgus monkey) in the same assay as above.
T2 construct: whole, on cells; also called cyno C-KIT+ CHO-K1 cells
With B1 the “EC50 (read off the curve)” value was ~0.2 µg/mL.
In the case of B2, the “EC50 (read off the curve)” value is reported as ~0.2 µg/mL.
For B4, the “EC50 (read off the curve)” value was ~0.2 µg/mL.
B5 was tested, and the “EC50 (read off the curve)” value was ~0.2 µg/mL.
With B6 the “EC50 (read off the curve)” value was ~0.2 µg/mL.
With B7 the “EC50 (read off the curve)” value was ~0.2 µg/mL.

These binders were tested against T3, human C-KIT-Fc (human, UniProt P10721 26-524) (assay: direct titration ELISA on coated C-KIT-Fc, IgG1 format).
T3 construct: also called biotinylated human C-KIT-Fc; not shown: Fc part not described
B8: binds.
B9: binds.
B10: binds.
B11: binds.

Each binder was assayed against T1, human C-KIT, full length, on cells (assay: cell-based or functional assay).
For B12, the “Human C-KIT CHO FabZAP IC50 (pM)” value was 12.6 pM, the “TF-1 FabZAP IC50 (pM)” value was 53.7 pM and the “TF-1 proliferation IC50” value was 26.3 nM.

What follows are binders tested against T2, cynomolgus monkey C-KIT, full length, … (assay: cell-based or functional assay).
For B12, the “Cyno C-KIT CHO FabZAP IC50 (pM)” value was 13.5 pM.

Target: T1, human C-KIT, full length, on cells
Test: flow cytometry, C-KIT-transfected CHO-K1 cells, IgG1 format
Remark: another data set of the same source
B13: binds.
B14: binds.
B15: binds.
B16: binds.
B17: binds.
B18: binds.
B19: binds.
B20: binds.
B21: binds.

What follows are binders tested against T3, human C-KIT-Fc (assay: direct ELISA;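 further: Plate-coated C-KIT-Fc (1 µg/ml) probed with antibodies for 1 hr, bound IgG detected via anti-human kappa-HRP and TMB, absorbance measured at 450 nm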).
B13: binds.
B14: binds.
B18: binds.
B22: binds.
B20: binds.
B21: binds.
B23: binds.

These binders were tested against T3, human C-KIT-Fc (assay: HTRF competition on human C-KIT-Fc against terbium-labelled h37M IgG1).
B15: binds.
B16: binds.
B17: binds.
B19: binds.

Target: T1, human C-KIT, full length, on cells
Test: cell-based or functional assay
Remark: another data set of the same source
B12 was tested, and the “TF-1 proliferation, fold less potent than h37M” value was 244 fold.

These binders were tested against T4, cynomolgus monkey C-KIT-Fc (cynomolgus monkey) (assay: HTRF competition vs Tb-h37M IgG1).
T4 construct: also called cyno C-KIT-Fc
B24 showed an IC50 of 0.059 µg/mL.
Work on B25 yielded an IC50 of 0.079 µg/mL.
Binder B26 has an IC50 of 0.166 µg/mL.
With B27 the IC50 was 0.097 µg/mL.
In the case of B28, the IC50 is reported as 0.101 µg/mL.
With B29 the IC50 was 0.081 µg/mL.
B30 gave an IC50 of 0.121 µg/mL.

The binders below were run against T3, human C-KIT-Fc (assay: HTRF competition vs Tb-h37M IgG1).
With B24 the IC50 was 0.027 µg/mL.
In the case of B25, the IC50 is reported as 0.031 µg/mL.
B26 was tested, and the IC50 was 0.066 µg/mL.
With B27 the IC50 was 0.031 µg/mL.
In the case of B28, the IC50 is reported as 0.051 µg/mL.
Binder B29 has an IC50 of 0.037 µg/mL.
B30 showed an IC50 of 0.046 µg/mL.

Target: T4, cynomolgus monkey C-KIT-Fc
Test: HTRF competition vs Tb-h37M IgG1
Remark: another data set of the same source
Work on B1 yielded an IC50 of 0.785 µg/mL.
In the case of B2, the IC50 is reported as 0.532 µg/mL.
In the case of B3, the IC50 is reported as 3.26 µg/mL.
With B4 the IC50 was 0.633 µg/mL.
Work on B5 yielded an IC50 of 2.74 µg/mL.
Binder B6 has an IC50 of 0.254 µg/mL.

Target: T3, human C-KIT-Fc
Test: HTRF competition vs Tb-h37M IgG1
Remark: another data set of the same source
B1 showed an IC50 of 2.05 µg/mL.
B2 was tested, and the IC50 was 0.839 µg/mL.
B3 gave an IC50 of 2.02 µg/mL.
Work on B4 yielded an IC50 of 0.684 µg/mL.
In the case of B5, the IC50 is reported as 2.2 µg/mL.
In the case of B6, the IC50 is reported as 0.272 µg/mL.

The binders below were run against T4, cynomolgus monkey C-KIT-Fc (assay: direct titration ELISA on coated C-KIT-Fc, IgG1 format).
B7 was tested, and the “EC50 (read off the curve)” value was ~0.1 µg/mL.
